In this assay the target is TraR (Agrobacterium strain A348). Nature of the assay: cell-based or functional assay.

Results on two substances are retold here after patent publication US6943243.

TraM: the fold +/- (induction of GUS by C8-AHL, TraR + TraM co-transfected) stood at 0.8 fold.

In the case of TraS, the fold +/- (induction of GUS by C8-AHL, TraR + TraS co-transfected) came to 6.6 fold.
